As a reminder, the Kd is the equilibrium constant for the complex coming apart. Lower therefore signals higher affinity.

Square brackets hold non-standard residues; d marks the D form. Ends that are not written are not given here. pY = N[C@@H](Cc1ccc(OP(=O)(O)O)cc1)C(=O)O; pS = N[C@@H](COP(=O)(O)O)C(=O)O

The target in assay [1] is T1, Human Phosphatidylethanolamine binding protein 1 (hPEBP1) (human, UniProt P30086 1-187).
T1 construct: the NMR assignment counts 187 residues in all, from Met1 to Lys187; The NMR samples were uniformly 15N-labelled; also called RKIP; source: E. coli BL21 (DE3), pET31b, purified (anion exchange, cation exchange); 15N-labelled for NMR, non-labelled recombinant for mass spectrometry
Kind of assay: native MS; hPEBP1 incubated with a range of peptide concentrations, bound protein fraction measured by ESI-MS; ammonium bicarbonate (ABC), pH 7.4, 25°C. The note with it: both partners purified.

Assay [2] concerns the target T1, Human Phosphatidylethanolamine binding …. Put plainly: native MS; hPEBP1 incubated with a range of peptide concentrations, bound protein fraction measured by ESI-MS; ammonium acetate 20 mM, pH 6.6, 20°C. The note with it: both partners purified.

T1 sequence (P30086 whole entry): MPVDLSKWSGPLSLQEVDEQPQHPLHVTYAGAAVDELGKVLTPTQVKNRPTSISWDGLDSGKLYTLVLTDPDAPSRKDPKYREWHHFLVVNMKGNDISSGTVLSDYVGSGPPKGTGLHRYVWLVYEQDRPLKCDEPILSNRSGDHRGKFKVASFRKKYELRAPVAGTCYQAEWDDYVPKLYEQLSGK

B1: tri-phosphorylated Raf-1 peptide (residues 331-349) (peptide)
peptide: RPRGQRD[pS][pS]Y[pY]WEIEASEV
notes: Raf-1 N-region, residues 331-349; three phospho-amino acids at Ser338, Ser339 and Tyr341; also called 3P; Raf-1 peptide; Raf-1 peptide in tri-phosphorylated form; source: synthetic peptide (solid-phase, Fmoc strategy)
On to B1, for which the dissociation constant (Kd) in assay [1] was found to be 11 ± 3 µM; in assay [2] it was 45 ± 12 µM.

For the origin of these results see paper PMC3338619, “Ligand Binding Study of Human PEBP1/RKIP: Interaction with Nucleotides and Raf-1 Peptides Evidenced by NMR and Mass Spectrometry” (PLoS ONE, 2012).
